Reference: the supplement of paper PMC7877785
± gives the uncertainty stated by the source.

Experiment: self-splicing fitness, log relative to wild type (ln ratio); higher = more splicing; Tetrahymena group I intron in knt gene, E. coli kanamycin selection, DiMSum; sequences stand for … in CUCUCU…GGAGGGAAAAGUUAUCAGGCAUGCACCUGGUAGCUAGUCUUUAAACCAAUAGAUUGCAUCGGUUUAAAAGGCAAGACCGUCAAAUUGCGGGAAAGGGGUCAACAGCCGUUCAGUACCAAGUCUCAGGGGAAACUUUGAGAUGGCCUUGCAAAGGGUAUGGUAAUAAGCUGACGGACAUGGUCCUAACCACGCAGCCAAGUCCUAAGUCAACAGAUCUUCUGUUGAUAUGGAUGCAGUUCACAGACUAAAUGUCGGUCGGGGAAGAUGUAUUCUUCUCAUAAGAUAUAGUCGGACCUCUCCUUAAUGGGAGCUAGCGGAUGAAGUGAUGCAACACUGGAGCCGCUGGGAACUAAUUUGUAUGCGAAAGUAUAUUGAUUAGUUUUGGAGUACUCGUGGUCG
Procedure, shortened: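 DiMSum derived fitness as the error-weighted combination of fold changes across replicates, kanamycin versus no kanamycin, normalised to wild type. E. coli BL21(DE3) held the library, which randomised all eight P1ex-region intron nucleotides within the knt kanamycin-resistance gene on pET-22b(+). Six replicate transformations grew overnight at 37°C or 30°C on LB agar with or without 25 μg/mL kanamycin, also containing 100 μg/mL carbenicillin, 50 μM IPTG and 0.2% rhamnose, and pooled colonies were amplicon-sequenced on an Illumina HiSeq 2500.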

Sequence	self-splicing fitness (ln) (30 °C)	self-splicing fitness (ln) (37 °C)
UGCAAGCAAUAUUACGGUGU	-3.9 ± 0.23	-2.92 ± 0.24
UACCAGCAAUAUUACGCGAG	-0.774 ± 0.049	-0.168 ± 0.061
UGGGAGCAAUAUUACGUCGG	-0.491 ± 0.24	–
CCUUAGCAAUAUUACGGAAG	-2.61 ± 0.14	-1.13 ± 0.14
CCUUAGCAAUAUUACGCGGG	-3.22 ± 0.16	-2.21 ± 0.2
GCCGAGCAAUAUUACGUAGU	-1.34 ± 0.14	-0.503 ± 0.16
CCAUAGCAAUAUUACGAGCC	-4.57 ± 0.45	-2.16 ± 0.36
GCCCAGCAAUAUUACGCAAA	-2.41 ± 0.14	-1.3 ± 0.11
CGCCAGCAAUAUUACGAGCG	-2.66 ± 0.17	-2.56 ± 0.23
UUGCAGCAAUAUUACGCGUC	-3.44 ± 0.15	-1.61 ± 0.14
UUCAAGCAAUAUUACGUCCU	-1.99 ± 0.12	-1.04 ± 0.14
UGACAGCAAUAUUACGUGAA	-1.94 ± 0.076	-0.332 ± 0.094
GGCCAGCAAUAUUACGGAAU	-0.615 ± 0.057	-0.0748 ± 0.068
AACAAGCAAUAUUACGCUGC	-3.38 ± 0.3	-2.45 ± 0.28
GGUGAGCAAUAUUACGUUUC	-3.36 ± 0.29	-1.68 ± 0.25
CAAGAGCAAUAUUACGCGUU	-3.61 ± 0.22	-3.05 ± 0.25
AAAAAGCAAUAUUACGACCC	0.000517 ± 0.17	0.616 ± 0.24
GGCUAGCAAUAUUACGCACG	-0.276 ± 0.093	-0.119 ± 0.1
GAAAAGCAAUAUUACGCUGA	-1.91 ± 0.24	-1.65 ± 0.21
UCCGAGCAAUAUUACGCAUG	-2.8 ± 0.32	-2.36 ± 0.3
CUGCAGCAAUAUUACGAGCG	-0.799 ± 0.093	0.667 ± 0.11
UAAAAGCAAUAUUACGCAGG	-1.55 ± 0.12	-1.2 ± 0.11
AGUCAGCAAUAUUACGAUCU	-0.19 ± 0.07	0.36 ± 0.09
GUACAGCAAUAUUACGGUUA	-0.862 ± 0.058	-0.00855 ± 0.057
CCGCAGCAAUAUUACGCGCG	-3.21 ± 0.2	-1.9 ± 0.17
UGACAGCAAUAUUACGAUCA	-0.329 ± 0.068	0.116 ± 0.089
GAGUAGCAAUAUUACGAUAA	-2.41 ± 0.25	-1.18 ± 0.2
UUUCAGCAAUAUUACGAAGG	-2.18 ± 0.15	-2.34 ± 0.28
